In article PMC9002095 (2022):
Blank lines part the entries; values can stand above or below the binder they belong to.

Columns and labels:
human CD47 = human CD47 (human, UniProt Q08722 19-323); test: SPR
BSA = BSA (bovine, UniProt P02769 25-607); test: ELISA
Sequence of BSA (P02769 25-607): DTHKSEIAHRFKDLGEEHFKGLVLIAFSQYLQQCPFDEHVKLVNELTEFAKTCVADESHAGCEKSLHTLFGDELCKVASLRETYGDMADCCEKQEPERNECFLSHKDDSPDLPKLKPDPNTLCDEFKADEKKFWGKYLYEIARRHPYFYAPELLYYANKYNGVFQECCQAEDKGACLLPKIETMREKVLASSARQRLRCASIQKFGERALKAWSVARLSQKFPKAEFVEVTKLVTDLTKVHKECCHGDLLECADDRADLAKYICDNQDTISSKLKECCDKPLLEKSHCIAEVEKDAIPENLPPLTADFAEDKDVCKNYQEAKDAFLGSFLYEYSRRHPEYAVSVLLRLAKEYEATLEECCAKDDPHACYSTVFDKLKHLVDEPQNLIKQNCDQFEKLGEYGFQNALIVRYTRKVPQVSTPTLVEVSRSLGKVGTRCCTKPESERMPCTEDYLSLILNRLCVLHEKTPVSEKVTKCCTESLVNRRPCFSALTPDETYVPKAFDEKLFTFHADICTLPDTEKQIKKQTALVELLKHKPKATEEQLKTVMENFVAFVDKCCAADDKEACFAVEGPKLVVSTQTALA

Sequence of human CD47 (Q08722 19-323): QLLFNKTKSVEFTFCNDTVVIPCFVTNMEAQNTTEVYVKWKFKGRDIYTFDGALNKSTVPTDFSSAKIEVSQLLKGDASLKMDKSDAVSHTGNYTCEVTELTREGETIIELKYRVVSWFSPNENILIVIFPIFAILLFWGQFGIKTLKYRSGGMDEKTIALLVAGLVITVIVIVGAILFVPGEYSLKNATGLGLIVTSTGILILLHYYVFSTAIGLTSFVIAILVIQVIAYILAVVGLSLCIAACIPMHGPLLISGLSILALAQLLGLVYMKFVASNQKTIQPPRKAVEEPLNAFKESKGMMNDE

koff (human CD47): 0.00958 s⁻¹
Kd (BSA): 56.8 nM
B1: TKKTLRT–SIRPαFc conjugate (Fc fusion)
chain 1: EEELQVIQPDKSVLVAAGETATLRCTATSLIPVGPIQWFRGAGPGRELIYNQKEGHFPRVTTVSDLTKRNNMDFSIRIGNITPADAGTYYCVKFRKGSPDDVEFKSG
chain 2: TKKTLRTC
modifications: free amino groups joined through Sulfo-SMCC to the cysteine of the peptide TKKTLRTC; one or two peptides on one SIRPαFc (MALDI-TOF-MS); sites not told | sulfhydryl of the C-terminal cysteine joined to the maleimide group of Sulfo-SMCC

koff (human CD47): 0.00727 s⁻¹
Kd (BSA): 4.25 nM
B2: human SIRPαFc fusion protein (Fc fusion)
chain: B1 chain 1
